Legend:
[1] = biological target: EndA(H160G/R127A/K128A) (Streptococcus pneumoniae, UniProt P0A3S3 31-274, H160G;R127A;K128A); assay: EMSA
[2] = biological target: EndA(H160G/R209A/K210A) (Streptococcus pneumoniae, UniProt P0A3S3 31-274, H160G;R209A;K210A); assay: EMSA

B1: 24 bp duplex (dsDNA)
DNA 1: GCAAGGTGCGTGCAGCCTTGGACC
DNA 2: GGTCCAAGGCTGCACGCACCTTGC
binding result [1]: no binding
binding result [2]: no binding
